Target: T1, calnexin (dog (endogenous in MDCK), UniProt P24643 21-593)
T1 sequence (looked up): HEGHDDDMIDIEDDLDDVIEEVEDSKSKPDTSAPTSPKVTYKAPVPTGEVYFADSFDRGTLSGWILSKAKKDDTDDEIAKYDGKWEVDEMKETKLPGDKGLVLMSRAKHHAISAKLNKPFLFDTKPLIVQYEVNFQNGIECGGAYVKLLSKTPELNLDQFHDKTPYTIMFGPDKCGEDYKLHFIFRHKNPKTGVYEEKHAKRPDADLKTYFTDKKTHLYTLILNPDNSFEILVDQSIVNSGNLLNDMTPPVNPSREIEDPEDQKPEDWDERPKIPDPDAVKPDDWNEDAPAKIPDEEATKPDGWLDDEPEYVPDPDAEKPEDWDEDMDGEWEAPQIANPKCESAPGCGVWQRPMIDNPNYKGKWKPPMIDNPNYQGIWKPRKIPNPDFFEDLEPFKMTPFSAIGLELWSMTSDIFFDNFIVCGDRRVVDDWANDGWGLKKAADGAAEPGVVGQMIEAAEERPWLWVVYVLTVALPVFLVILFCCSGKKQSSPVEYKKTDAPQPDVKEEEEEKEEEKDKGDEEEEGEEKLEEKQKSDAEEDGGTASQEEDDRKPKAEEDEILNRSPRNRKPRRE
Experiment: co-IP

B1: YFP-linked Na,K-ATPase β2 subunit (human), wild type (natural protein, UniProt P14415 1-290, looked up)
chain: MVIQKEKKSCGQVVEEWKEFVWNPRTHQFMGRTGTSWAFILLFYLVFYGFLTAMFTLTMWVMLQTVSDHTPKYQDRLATPGLMIRPKTENLDVIVNVSDTESWDQHVQKLNKFLEPYNDSIQAQKNDVCRPGRYYEQPDNGVLNYPKRACQFNRTQLGNCSGIGDSTHYGYSTGQPCVFIKMNRVINFYAGANQSMNVTCAGKRDEDAENLGNFVMFPANGNIDLMYFPYYGKKFHVNYTQPLVAVKFLNVTPNVEVNVECRINAANIATDDERDKFAGRVAFKLRINKT
modifications: N-glycans at all eight N-glycosylation sites; only the high-mannose form coprecipitated with calnexin
B1 was tested, and the “normalised amount coprecipitated, fold of that of YFP-β1” value was roughly 7 fold.
